Test results published in the DeepSol protein solubility set.

Experiment: soluble on expression in E. coli; label from the status in PepcDB or PDB records

Row | Sequence | soluble on expression in E. coli
1 | GAMESEEPVFSLEQNRDDAMAALASTPTFQQTFINSISTQAMDLCKKYNLYPSVMIAQAALESNWGRSELGKAPNYNLFGIKGSYNGKSVTMKTWEYSDSKGWYQINANFAKYPSHKESLEDNAKKLRNGPSWDSSYYKGAWRENAKTYKDATAWLQGRYATDNTYASKLNTLISSYNLTQYD | soluble
2 | MNKQPGEQPVSCATSTGKSEKERQKDEPPRSRAEAGMMRGGGRLPQPRDTPMEVPNMIAAMPIQMTGFVDLAPHTILDVLAQTTSLMIVQCLEPLEIFTGIETPNRYVVHDMYCRPLLYCMERSSFFARQHQGSQRNFAMQCMDIFGAPVMNCFRSRPCCSCDDFLATEFLGQRIGMMKRECCDDNFHLVGTGSNEPLLVRSPGCACCGGTQVFPVMTYNGAKIGEIVRLYPGFMQEWYTDADTYIVHFPPDLPPILKILLISSTFLIDYTFFENRGGNQRGGYGHGGYGYY | not soluble
3 | GQLVESGGGSVQAGGSLRLSCAASGIDSSSYCMGWFRQRPGKEREGVARINGLGGVKTAYADSVKDRFTISRDNAENTVYLQMNSLKPEDTAIYYCAAKFSPGYCGGSWSNFGYWGQGTQVTVSSH | soluble
4 | MGSDKIHHHHHHMNDQLTEYRIKKAPYYRATGDETELYEAAYSVRMPMMLKGPTGCGKTRFVEYMAYKLGKPLITVACNEDMTASDLVGRFLLDPQGTRWQDGPLTLAARLGAICYLDEVVEARQDTTVVIHPLTDNRRVLPLEKKGELVQAHPDFQLVISYNPGYQSLMKDLKQSTKQRFGALDFNYPDHEIEAEIVSHETGVNKEVADKLVSIAERARNLKGHGLDEGISTRMLVYAGSLINKGVEAKAACRVTLVRPITDDPDMRDALDAAVTTYF | not soluble
5 | GPGSMRRVVITGLGLVSPLAGDVEYSWKRLLEGKSGVRRITEFDVSDLSCQIAARIPVGDGTNGTYNADLHMESKEQRKVDAFIVYAIAAADQALADAEWFPKSDEDQICTGVLIGSGIGGIEGIVEAGYTLRDKGPRRISPFFIPGRLINLASGYVSIKYGLRGPNHSVVTACSTGAHAIGDAARLIALGDADVMLAGGTESPINRISLAGFSACRALSTCRNDDPERASRPYDVDRDGFVMGEGAAIVVLEELEHAKKRGARIYAEIIGYGLSGDAYHITAPSESGEGAQRSMMAALKRAQVNVSELDYINAHGTSTMADVIELAAVERVLGYYAPQVSMSSTKSSIGHLLGAAGAAEAIFCVLAIRDNIAPATLNLENPSIETKIDLVPHKPRERKIDTVLSNSFGFGGTNASLVMRRFSE | soluble
6 | MGSDKIHHHHHHMAPMKIGLILEGTYPYVTGGVSNWVHTLLTNLPEFEFEIYHLKAVTEPQTIKYKIPENVTAVHELNIFGDFESDSSQKANLESLERIVSQLSIERDIRSIVSFAIDFIRENAGKNVRKMLKTKGFWNILLKIYEEFFSERGLTEFYWMIMNLFLPVVNVLQFVPNRCDLFHVPSTGYASLVGMNGKFVHDVPLVITEHGIYHKEREREIILSTWVPDAYKPMWIELFRIISMIAYRVSDALTTLYRKNQIYQLELGADPEKMFIIPNGINVEEYDLPPEKHEGFVVGFVGRVARIKDLKTAIRAISIVKEVVGEKLTFLIIGPVDAEDYLAECKRLVRVLRLEDTVEFLGPQNVKEYYPKFDLLLLSSVSEGQPLVILEAMAAGVPIVATDVGACRDIIYDKDGQCGIVVPPKDHLSMSKAIIKLYEDKELRDTFSKNAKKVVQKYRVETMIEKYRNLYLSLTSKKTVSTV | not soluble
7 | MGSDKIHHHHHHMFDVAARSGSFKQASQELGVTQSAVTRQIQTLEEQLEVRLFQRDNRVHSLTPVGLELAPQIEQIFEQLERTIERTRNLSDNTTTQLTVAISSERLRFWLAAKLADFHSLYPHIQLSFSRCNEYFINESAAEMASAIQHQSWDLAIGYGKVTDKHIQSIVLQKNQMLPVSAIKTNNSPFQLPWLINPENPDHQAMLKTYSQQLKSTRIIHCNDVQMSLDLSSAEQAVALIDSSLITPGLSNLKVYNDSAQPCQYPLSIYYRKRQRQPVALVAFIKWLQMIIS | not soluble
8 | MKLPARVFFTLGSRLPCGLAPRRFFSYGTKILYQNTEALQSKFFSPLQKAMLPPNSFQGKVAFITGGGTGLGKGMTTLLSSLGAQCVIASRKMDVLKATAEQISSQTGNKVHAIQCDVRDPDMVQNTVSELIKVAGHPNIVINNAAGNFISPTERLSPNAWKTITDIVLNGTAFVTLEIGKQLIKAQKGAAFLSITTIYAETGSGFVVPSASAKAGVEAMSKSLAAEWGKYGMRFNVIQPGPIKTKGAFSRLDPTGTFEKEMIGRIPCGRLGTVEELANLAAFLCSDYASWINGAVIKFDGGEEVLISGEFNDLRKVTKEQWDTIEELIRKTKGS | soluble
9 | QTSGFSVTSGPMDVDVVTSIPFAMVDEINESSPAAEGGLQLGDQVLKFGNVEGGDNLLQRLAAEAQSNQGQAVSVQVMRQ | soluble
10 | MSLEKAPHLTILVSIDGFRADYLDRGDTPVMKALAENGARAAMRPSFPSVTFPNHYTLITGKRPDRNGIVANTMVDPSVSAEKFTMRSLDPAWWSQAKPFWVSVEQQGKRAAAMFWPGSEVEIDGVRPSRWVKFDQTMPGDARVDQVLNWLDSADGPPIAFSTLYFDIVDTQGHHYGPESPEVRAAAASVDAALGRLVAGLKARGRFESTDIVIVADHGMAPLPAANRVVLDDLVDVSKIRLVTTGAVTAFSPMPGERKAVEAAFLSKPLPHMTCWKKNRIPARFHYGRNSRVPAIVCLSETGWYTTTEAAKQKPSEWDGKDGGAHGFDPYDPTMQAVFVAHGPSFKSGVALPAFDNVDVYALLAKVTGVRPEKTDGSLKVVREEGHHHHHH | not soluble
11 | MCFHNSMSAKAIKVAARYGRQSDVVEIYQSILDEQYHVNAFTFPRYPIITSSDEVQVFNWGLIPFWVRSEEDATEIRKMTLNARADTIFEKPSFREPIMKKRCIVPSTGYFEWRHEGANKIPYYIYVKDEPIFSMAGIYDRWLDKDTGEEHETFSIITTDTNSLTDYIDNTKHRMPAILTQEEEEKWLNPSLSKAEIASLLKPFDTEKMDAYVIRNDFLKKSPNDPTIVQRALEHHHHHH | soluble
12 | EISLNGYGRFGLQYVEDRGVGLEDTIISSRLRINIVGTTETDQGVTFGAKLRMQWDDGDAFAGTAGNAAQFWTSYNGVTVSVGNVDTAFDSVALTYDSEMGYEASSFGDAQSSFFAYNSKYDASGALDNYNGIAVTYSISGVNLYLSYVDPDQTVDSSLVTEEFGIAADWSNDMISLAAAYTTDAGGIVDNDIAFVGAAYKFNGGGGPKLAKMEKARGGGGDAGTVGLNWYDNGLSTAGDQVTLYGNYAFGATTVRAYVSDIDRAGADTAYGIGADYQFAEGVKVSGSVQSGFANETVADVGVRFDF | soluble
13 | MRILLSNDDGVHAPGIQTLAKALREFADVQVVAPDRNRSGASNSLTLESSLRTFTFDNGDIAVQMGTPTDCVYLGVNALMRPRPDIVVSGINAGPNLGDDVIYSGTVAAAMEGRHLGFPALAVSLNGYQHYDTAAAVTCALLRGLSREPLRTGRILNVNVPDLPLAQVKGIRVTRCGSRHPADKVIPQEDPRGNTLYWIGPPGDKYDAGPDTDFAAVDEGYVSVTPLHVDLTAHSAHDVVSDWLDSVGVGTQW | not soluble
14 | SNILEKVVLKVLEDQQNIRLIRELLQTLYTSLCTLVQRVGKSVLVGNINMWVYRMETILHWQQQLNNIQITRPAFKGLTFTDLPLCLQLNIMQRLSDGRDLVSLGQAAPDLHVLSEDRLLWKKLCQYHFSERQIRKRLILSDKGQLDWKKMYFKLVRCYPRKEQYGDTLQLRKHCHILSWKGTDHPCTANNPESCSVSLSPQDFINLFKF | not soluble
15 | MEGWQRAFVLHSRPWSETSLMLDVFTEESGRVRLVAKGARSKRSNLKGALQPFTPLLLRYSGRGEVKTLRSAEAVSLALPLSGITLYSGLYINELLSRVLEYETRFSELFFDYLNCIQALAGTTGSPEPALRRFELALLGHLGYGVNFTHCAGSGERVDDTMTYRYREEKGFFASVVIDNNTFTGRHLKALEAREFPDVDTLRAAKRFTRMALKPYLGGKPLKSRELFRQFMPKRTVKTKKD | not soluble
16 | MVTRVLIVGDGDAGTIMANKLRFHTDRRDVDITVVGNSKDHYFKPDGVHISFNMVDYKKSVKPTEFLFNYGVNYIRDTVSRIDVADHSVQTTGGRNLDYDYLIIATGDRFTPEDVPGYAESAKHFYDLPHALELQKEIKGFKGGKVVIGQASIPIMCPPAPYEFTFLLEEYLNFHGLKDKTEIHYIYPLNRVFTIPNVADFVAKRMEERGIITHTLFNVESIDPKNKKIQSLEGESINYDLLVLIPPHRGQKVITDSGLADESGYIDVDKYKLNYKDYDNVFAIGDATNLPVSKAGATAHFEALYLSNRIAAETSGNVYNELYEGDVACTTVTGYEKGLTLYFNYNKPPRANYDSKLDYFLKWQSGDTFFSSMLRGVALEHHHHHH | not soluble
17 | RVVTQNEIDRTIPVGAIMMWAADSLPSDAWRFCHGGTVSASDCPLYASRIGTRYGGSSSNPGLPDMRGLFVRGSGRGSHLTNPNVNGNDQFGKPRLGVGCTGGYVGEVQKQQMSYHKHAGGFGEYDDSGAFGNTRRSNFVGTRKGLDWDNRSYFTNDGYEIDPASQRNSRYTLNRPELIGNETRPWNISLNYIIKVKE | soluble
18 | MHKINKWSVIYNINSTVTRALRDLMQGILQKI | soluble
19 | MGSDKIHHHHHHMLDSYIKRIVIHQFSPNDTELLLSDRLVSITPRIDEYFRKKLAKVFSDEAKRGQFEANNTFFTTIGDDLLETSVTIAQLWKEAFVISEDQKTNDLVFVQFDKDGEPFFAFLRIALKEQFAHLSDNYEHPFTVTQNNLPSPTQTPDEALVINLKSGQYYLIEKRVKHNGSFANYFSEHLLKVTPEQSVKKSIKMIEQTAQKIAEHFNQDDFTFQSKMKSTLFKQLEADDVLSPEKLADQLFDDNLTARLTFVDQVKDVIPEPIKISDIEHSRQIKKLENQKLSLSNGIELTVPNAIYQDAEAVEFLLNDDGTYSILIKNIEDIKTK | not soluble
20 | MAFSRTHSLLARAGSTSTYKRVWRYWYPLMTRGLGNDEIVFINWAYEEDPPMDLPLEASDEPNRAHINLYHRTATQVDLGGKQVLEVSCGHGGGASYLTRTLHPASYTGLDLNQAGIKLCKKRHRLPGLDFVRGDAENLPFDDESFDVVLNVEASHCYPHFRRFLAEVVRVLRPGGYFPYADLRPNNEIAAWEADLAATPLRQLSQRQINAEVLRGIGNNSQKSRDLVDRHLPAFLRFAGREFIGVQGTQLSRYLEGGELSYRMYCFTKD | not soluble
21 | MEALDSSSFTFPQDYEFSYVVNHNCSADGNTYCVQPVKPTTVSRFGTRYIKFDIKALPVGSPIPCKSPKEWRVIKG | not soluble
22 | VRRGQLIDAAREITAQHGVAALTIRGVAEAAGVSLGVVHYHFEDKEELLTEMGQSLILEVSEAMRMAFSQLVGPLKKRGVPGLRELLCAGIRGLWPIIEATPDQQLLTYEITAQALRQRGAGNDSAGLVAARQYRTMDTEAVAFLNLCAHRAGVTWGTPVDQVARFALAVLDGAVLRWLVDRDSDAARTAFDDLVQIIAAKALEGEGSW | not soluble
23 | GSMDPSGVKVLETAEDIQERRQQVLDRYHRFKELSTLRRQKLEDSYRFQFFQRDAEELEKWIQEKLQIASDENYKDPTNLQGKLQKHQAFEAEVQANSGAIVKLDETGNLMISEGHFASETIRTRLMELHRQWELLLEKMREKGIKLLQ | soluble
24 | GWIQELTAGHAEHTPETEEYGISSFVYKRRLPFHSTRFYRWLDQMPKNVVRAKGIVWCASHNNLALLMSQAGPSVTIEPVSYWVAALPKLEQEQVKQQEPEILEEWDPEFGDRLTQLVFIGTDLDEETITKELDQCLLTEYEFDSDWSLFEDPFKWKLNQ | not soluble
